Source: the nanobody polyreactivity screen of Harvey et al. (2022)

Assay: yeast display, Sf9 membrane polyspecificity reagent, FACS + sequencing; frameworks hold sequencing errors
Procedure, shortened: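 Polyreactivity labels are assigned by the sorting gate from which each nanobody was recovered. The gates were low and high (top ~1%), set on anti-HA fluorescence for expression and streptavidin fluorescence for reagent binding. Before sorting, galactose-induced (36–48 hours) yeast display cells were stained for 1 hour at 4 °C with 10% biotinylated, detergent-solubilized Sf9 membrane reagent.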

Sequence	polyreactivity (PSR sort gate)
QVQRVESGGGLVQAGGSLRLSCAASGGTFPQYAMGWDRQSHGKETEFVADITSRGGTTYYADSVKGRFTISRDNAKNTVYLQMNSLKPEDTAVNYCAADNPADWWGLDYWGQGTQVTVSS	low polyreactivity
QVQRVESGGGLVQAGGSLRLSCAASGIIFRGYAMGWYRQAPGKERELVAAITSSGARTYYADSVKGRFTISRDNAKNTVYLQMNSLKPDDTAVYYCNATSSVRRYDSWGQGTQVTVSS	high polyreactivity
QVQRVESGGGLVQAGGSLRLSCAASGRIFLIYAMGWYRPAPGKERELVAGISSGGSTYYADSVKGRFTISRDNAKNTVYLQMNSLKPEDTAVYYCAARRYYYRYLFGRYAYGYWGQGTQVNVSS	low polyreactivity
QVQRVESGGGLVQAGGSLRLSCAASGRIFRYYAMGWYRQAPGKERELVASISRRGGSTNYADSVKGRFTISRDNAKNTVYLQMNSLKPEYTAVYYSNAENWSPRGLYNYWGQGTQVTVSS	high polyreactivity
QVQRVESGGGLVQAGGSLRLSCAASGRIFVNYPIGWYRQAPGKERELVAAITSHGSTSYADSVKGRFTISRDNAKNTVYLQMNSLKPEDTAVYYCANDFFEHSPVSHTYSSSKYDYWGQGTQVTVSS	low polyreactivity
QVQRVESGGGLVQAGGSLRLSCAASGSIFNSNAMGWYRLAHGKERELVAAINWRGGSTYYADSVKGRFTISRDNAKNTVYLQMNSLKPEDSAVYYCAAVGWFHDYYWGQGTQLTVSS	high polyreactivity
QVQRVESGGGLVQAGGSLRLSCAASGSIFSYNAMGWYRQAPGKERELVAAIRASGGDTYYADSVKGRFTISRDNAKNTVYLQMISLKPEDTAVYYCAARTYAHHYASHGYWGQGTQVTVSS	low polyreactivity
QVQRVESGGGLVQAGGSLRLSCAASGSILFHYAMGWYRQAPGKEREMVAAISRRGGSTYYADSVKGRFSISRDNAKNTVYLQMNSLKPEDTAVYYCAKYPSAYVDSDVTYDMDYWGQGTQVTVSS	low polyreactivity
QVQRVESGGGLVQAGGSLRLSCAASGSILGIYGMGWYRQAPGKERELVAAISYSGGSTYYADSVKGRFTISSDNAKNTVYLQMNSLKPEDNAVYYCAADLTRGVSYYVDFYYWGQGTQVTVSS	low polyreactivity
QVQRVESGGGLVQAGGSLRLSCAASGSTFNRNALGWYRPEPGKERELVAAISWRGDSTSYADSVKGRFTITRDNAKNTVYLQMNSLKPEDTAVYNCASAHAYAFYRYWYVPSEYNYWGQGTQVTVSS	low polyreactivity
QVQRVESGGGLVQAGGSLRLSCAGSGRIFVQYAMGWYRQAPGKERELVAAISGSGGRTYYADSVKGRFTISRDNAKNTVYLQMNSLKPEDTAVYYCARRGAYTGRYDYWGQGTQVTVSS	high polyreactivity
QVQRVESGGGLVQAGGSLRLSCAGSGSTFAQNGMGWYRPAPGKERELVAAIRWNGGSTYYADSVKGRFTISRDNAKNTVYLQMNSLKPEDTAVYYCAARHPLYRVQHEDWGQGTQVTVSS	low polyreactivity
QVQRVESGGGLVQAGGSLRLSCAHSGRTFPRYVMGRYRQAPAKERELVAAITSSGGSTYYADSVKGRFTISRDNAKNTVYLQMNSLKPEDTAVYYCAAYARPYSGPYAYRLDYWGQGTQVTVSS	high polyreactivity
QVQRVESGGGLVQAGGSLRLSCSASGRTFGHNTMGRYRQAPGKETEFVAAIDFNGGSTYYADSVKGRFTISRDNAQNTVYLQMNSLKPEDTAVYYCAADIYFYYYGSYDYWGQGTQVTVSS	low polyreactivity
QVQRVESGGGLVQAGGSLRLSSADSGSTLSGYAMGWYRQAPGKERELVATIRITGGRTYYADSVKGRFTISRDNAKNTVYLQMNSLKPEDTAVYYCNVRSRRRVSSYDYWGQGTQVTVSS	high polyreactivity
QVQRVESGGGLVQAVGSLRLSCAPSGIIIPVKAMGWYRQAPGKERELVAAITTGGSTNYADSVKGRFTISRDNAKNNVYLQMNSLKPEDTAVYYCAADTARTRIFDYWGQGTQVTVSS	low polyreactivity
QVQRVESGGGLVQEGGSLSLSCAASGSTYKNAMGWYRQAPGKERELVAAITWSGGTTYYADSVKGRFTISRDNAKNTVYLQINSLKPEDTAVYYCAAEYRWYSRYFNYWGQGTQVTVSS	high polyreactivity
QVQRVETGGGLVQAAGSLRLSCAASGRTFRNYAMGWYRQAPGKERELVAAIRSGVRTYYADSVKGRFTISRDNAKNTVYLQMNSVKPEDTAVYYCAVATGLLYKSHGYCGQGTQVTVSS	low polyreactivity
QVQRVETGGGLVQARGSLRLSCAASGRIFACYTMGWFRQAPGKERELDAAISWNGGRTYYADSVKGRFTISRDNAKNTVYLQMNSLKPEDTAVYYCAAGKTPQKYGGFNYWGQGTQVTVSS	high polyreactivity
QVQVGESGGGLVQAGGSLSLSCAASGSIFPANAMGWYRQAPGKERELVAAITRGGRTYYADSVKGIFTISRDNAKNCVYLQMNSLKPEDTAVYDCAAYVLSKREYYRYDYWGQGTQVTVSS	high polyreactivity
QVQVVESGGALVQAGGSLRLSCAASGRTFDWNAMGWYRQAPGKERELVAAITYSGGGTYYADSVKVRFTISRDHATNTVYLQMNSLKPEDTAVYYCAAGYPGTWSYYYWGQGTQVTVSS	low polyreactivity
QVQVVESGGGFVQAGGSLRLSCAASGRTFAVYAMGWYTQAPGKEREFVATISVSDGSTYYADTVKGRFTISRDNAKNTVYLQMNSLKPEDTAVYYCAAQRWTVKYNYWGQGTQVTVSS	high polyreactivity

Sequence	polyreactivity (PSR sort gate)
QVQVVESGGGFVQAGGSLRLSCAASGRTFRYYAMGWYRQAPGKERELVAVISSSDSTNYADSVKGRFTISRDNAKNTVNLQMNSLKPEDTGVYYCAKVYRVIRPYGYWGQGTQVTVSS	high polyreactivity
QVQVVESGGGIVQAGGSLRLSCAASGSIFETYAMGWYRQAPGKESELVAAISRTSGRTYYADSVKGRFTISRDNAMNSVYLQMNSLKPDDTAVYYCAAVVRNPGTYDYWGQGTQVTVSS	high polyreactivity
QVQVVESGGGLDQAGGSLGLSCAASGSIFIKYAMGWSRQAPRKERELVAAISRRGGSPYYADSVKGRFTISRDNAKNTVYLQMISLKPEDTAVYYCAAVNISFGYADRFYYVYRGDYWGQGTQVTVSS	high polyreactivity
QVQVVESGGGLLQAGVSLRLSCAASGRTFSKYDMGLYRQPPGKERELVAAITRTGSSTYYADSVKGRFTISRDNAKNTVYLQMNSLKPEDTAVYYCAADRYLRYSGSSSDYGYWVQGTQVTVSS	low polyreactivity
QVQVVESGGGLVQAGCSLRLSCAASGFTFRDYAMGWYRPAPGKERELVATITLRVGSTFYADSLKGRFTISRDNAKNTVYLQKNSLKPEDTAVYYCADEDSNVVAYDYWGQGTQVTVSS	low polyreactivity
QVQVVESGGGLVQAGGSHRLSCAASGSTFIRYPMGWYRQAPGKERELVAAITWSGGSTYYADSVKGRFTISRDNAKNTVYLQMNSLKPEDTAFYYCAARGPSLSNYRGRMYYWGQGTQVTVSS	high polyreactivity
QVQVVESGGGLVQAGGSLGLSCAASGSTFTRNAMGWYRQAPGKERELVAAITSSGGSTYYADSVKGRFTISRDNAKNTVYLLMNSLKPEDTAVYYCAAYVRPSYFGWMDYWGQGTQVTVSS	low polyreactivity
QVQVVESGGGLVQAGGSLRISCAASGRILGNNVMGWYRQAPWKERDLVAAITSSGGRTYYADSVKGRFTISRDNAKNTVYLQMNSLKPVDTAVYYCAAERRYYGKFNYWGHGTQVTVSS	high polyreactivity
QVQVVESGGGLVQAGGSLRLICAASGSTFYSYAMGWYRQAPGKERELVAPISSSGVRTYYADSVKGRFTISRDNAKNTVFLQMISLKPEDTAVYYCNTYLKRYVGRGGPSYYWGQGTQVTVSS	high polyreactivity
QVQVVESGGGLVQAGGSLRLSCAASGFTFAVYAMGWYRQAPGKERELVAAISRSGTRTYYADSVKGRFTISRDNAKNTVYVQMNSLKPEDTAVYYCAADKYRHGYDYWGQGTQVTVSS	low polyreactivity
QVQVVESGGGLVQAGGSLRLSCAASGFTSTRYAMGWYRQAPGKERELVAAISYGGGDTYYADSVKGRFTISRDNAKNSVYLQMNSMKPEDTAVYYCNARGRYRKSERRAFDYWGQGTQVTVSS	high polyreactivity
QVQVVESGGGLVQAGGSLRLSCAASGITFFLNAMGWYRQAPGKERELVAAISSGAGTTYADSVKGRFTISRDNAKNTFFLQMKSLKPEDTAVYYCAAAGDYVVPISSTAGFGGDYWGQGTQVTVSS	low polyreactivity
QVQVVESGGGLVQAGGSLRLSCAASGLTFQVYAKGWYRQAPGKERELVARISSSGSSTYADSVKGRFTISRDNAKNTVYLQMNSLKPEDTAVYYCNAGKRQRGEYWGQGTQVTVSS	high polyreactivity
QVQVVESGGGLVQAGGSLRLSCAASGRIFGYNAMGWYRQAPGKERELVAAISSGGSTYYADSVKGRFTISRDNAKNTVYLLMHSLKPEDTAVYYCAAEDYPPYPTVYDYWGQGTQVTVSS	low polyreactivity
QVQVVESGGGLVQAGGSLRLSCAASGSIFFVYAMGWYRQAPGKERELVAAISSGDITYYADSVKGRFTISRDNAKNTVYLQLISLKPEDTAVYYCNAERLGNTLSPGGDDYWGQGTQVTVSS	low polyreactivity
QVQVVESGGGLVQAGGSLRLSCAASGSIFSGYAMGWYREAPGKERELVAAITSSGGSTYYADSVKGRFTISRDNAKKTVYLQMHSLKPEDTAVYYCAAYRYRYYSYDSWGQGTQVTVSS	high polyreactivity
QVQVVESGGGLVQAGGSLRLSCAASGSIFSWNAMGWYRQAPGKERELVAAISKRGTSTYYADSVKGRFTISRDNAKNTVYLQMNSLKPEDTAVYYCAVSRIVDFGQKMYYWGQGTQVTVSS	high polyreactivity
QVQVVESGGGLVQAGGSLRLSCAASGSISDSYAMGWYRQAPGKERELVAAITSGDSTYYADSVKGRFTISRDNAKNTVYLQMNSLKPEDTAVYYCAKRVSRVRGYGFTDWSEYDYWGQVTQVTVSS	low polyreactivity
QVQVVESGGGLVQAGGSLRLSCAASGSTFFFYAMGWYIHAPGKERELVAAISSTGRKYYADSVKGRFTISRDNAKNTVYLQMNSLTPEDTAVYYCAARIYSGYSYWGQCTQVTVSS	high polyreactivity
QVQVVESGGGLVQAGGSLRLSCAASGSTFGVYAMGWYRQAPGKEWELVAAISASTGSTYYADSVKGRFTISRDNAKQTVYLQMNSRKPEHTAVYYCAAAGYGKVRGDYWGQGTQVTVTS	low polyreactivity
QVQVVESGGGLVQAGGSLRLSCAASGYIINQYTMGWYRQAPGKERELVADNSSGGSTTYADSVKGRFTISRDNAKNTVYLQMNSLKTEHTAVYYCNAEYDSGSPTAYDWEYDYWGHGTQVTVSS	high polyreactivity
